# Laboratory results: article PMC5670239, “Structural basis for mutually exclusive co-transcriptional nuclear cap-binding complexes with either NELF-E or ARS2” (Nature Communications, 2017)
# Ends that are not written are not given here.
# Tests used:
# m^7GTP-CBC [1] = target: T1, m^7GTP-CBC (Homo sapiens, UniProt P52298+Q09161); experiment: ITC, binding to CBC in the presence of the cap analogue m^7GTP; conditions: for Kd: ITC, 25 °C, 20 mM HEPES, 120 mM NaCl, 2 mM TCEP, pH 7.8, CBC bound to m^7GTP, mean ± SD of at least two independent experiments, SD
# T1 construct: 6-histidine tag (pETM30 vector) (N, cleaved yes); made in house; host or cells: CBP20 in E. coli Rosetta 2; CBP80ΔNLS in High Five insect cells; heterodimer reconstituted on Ni-sepharose
# T1 sequence (Q09161 20-790): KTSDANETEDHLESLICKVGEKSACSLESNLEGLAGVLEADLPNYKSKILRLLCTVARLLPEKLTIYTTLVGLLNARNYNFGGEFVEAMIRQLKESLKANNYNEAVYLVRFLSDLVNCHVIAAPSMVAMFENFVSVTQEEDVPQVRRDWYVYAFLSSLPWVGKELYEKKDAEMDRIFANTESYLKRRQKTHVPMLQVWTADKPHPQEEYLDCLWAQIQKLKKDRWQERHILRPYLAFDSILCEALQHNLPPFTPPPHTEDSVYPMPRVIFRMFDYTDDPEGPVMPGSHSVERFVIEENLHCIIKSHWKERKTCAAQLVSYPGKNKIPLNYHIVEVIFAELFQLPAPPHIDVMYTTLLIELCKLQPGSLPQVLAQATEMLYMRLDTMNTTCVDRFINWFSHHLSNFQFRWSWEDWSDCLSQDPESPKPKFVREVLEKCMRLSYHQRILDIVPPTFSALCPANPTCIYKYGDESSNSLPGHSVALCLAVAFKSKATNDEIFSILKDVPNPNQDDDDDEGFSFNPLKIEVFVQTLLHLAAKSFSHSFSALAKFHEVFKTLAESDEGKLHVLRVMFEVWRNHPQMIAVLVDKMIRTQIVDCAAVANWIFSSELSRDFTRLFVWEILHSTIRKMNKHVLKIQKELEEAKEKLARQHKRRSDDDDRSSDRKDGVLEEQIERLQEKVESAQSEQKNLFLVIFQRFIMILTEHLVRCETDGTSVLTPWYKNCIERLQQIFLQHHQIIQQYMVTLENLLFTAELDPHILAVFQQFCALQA
# T1 sequence (P52298 1-156): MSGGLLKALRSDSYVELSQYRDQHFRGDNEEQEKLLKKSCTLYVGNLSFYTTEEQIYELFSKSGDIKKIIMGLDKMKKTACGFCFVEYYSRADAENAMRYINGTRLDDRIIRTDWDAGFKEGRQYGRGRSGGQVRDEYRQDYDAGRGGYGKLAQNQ
# Source text: (§1) hARS2 isoform-4 (871 residues, UniProt:Q9BXP5-4, also known as isoform-e, NP_001122326) constructs (residues 147–871, 147–845, 763–871, 763–845, 827–871) hNELF-E (NM_002904.5) (244–380, 244–360) and hPHAX (NM_032177.3) (1–394, 103–294, 103–308, 103–327) were cloned into pETM11 (EMBL). Full-length hNELF-E (1–380) was cloned into pFASTBac and CBP20 into pETM30. Primers used are given in Supplementary Table 2. All constructs were expressed in E. coli Rosetta 2 (Novagen), except full-length NELF-E and CBP80ΔNLS (CBP80 with residues 1–19 deleted[2]), which were expressed in High Five insect cells (Life Technology). Cells were harvested and lysed by sonication in lysis buffer containing 50 mM HEPES, pH 7.8, 300 mM NaCl, 10% (v/v) glycerol, 5 mM β-mercaptoethanol. Lysates were clarified by centrifugation and applied on an equilibrated Ni-sepharose column (GE Healthcare), washed with 20 mM imidazole in lysis buffer, and eluted with 300 mM imidazole in lysis buffer. While dialysing into 20 mM HEPES, pH 7.8, 120 mM NaCl, 10% (v/v) glycerol, 5 mM β-mercaptoethanol, the N-terminal 6-histidine-tag was cleaved with His-tagged Tobacco Etch Virus (TEV) protease overnight in a ratio 1:100 mg TEV per mg protein. The cleaved protein was further purified first on Ni-sepharose to remove TEV and then using an anion exchange column (HiTrap Q, GE Healthcare) followed if necessary by a Heparin column (GE Healthcare). In both cases a NaCl gradient from 50 to 800 mM in 20 mM HEPES 7.8, 0.5 mM tris(2-carboxyethyl)phosphine was used. To reconstitute the CBC heterodimer, cleared His-tagged CBP20 lysate was first immobilised on a Ni-sepharose column. After washing the column with lysis buffer, the cleared CBP80 lysate was applied to the column and further purification steps performed as described above. To remove the access of CBP20 the flow through of the Ni-column after TEV cleavage was loaded on an anion exchange column (HiTrap Q, GE Healthcare) and CBC eluted by a NaCl gradient as described above. In the text we refer to CBP80ΔNLS and CBP80ΔNLS-CBP20 as CBP80 and CBC, respectively. ARS2^845–871, NELF-E^354–380, and NELF-E^360–380 peptides, with or without FAM label at the N-terminus, were purchased from GenScript.
# [2] = system: CBC with triple mutants of both CBP20 and CBP80; experiment: m^7GTP-sepharose pull down with mutated CBC; format: binding, human; conditions: CBP80 Y461A/R610E/H651A combined with CBP20 Y50A/Y89A/D107R
# Source text: For CBC, a triple mutant in CBP80 (Y461A/R610E/H651A) was combined with various mutations in CBP20 (Y50A, Y50A/Y89A, or Y50A/Y89A/D107R). Binding of ARS2^827–871 to mutated CBC was first tested by m^7GTP-sepharose pull down (Supplementary Fig. 6).
# m^7GTP-CBCmut = experiment: ITC, binding to mutated CBC in the presence of m^7GTP; design: species or system human; conditions: with m^7GTP; for Kd: 25 °C, pH 7.8, CBCmut = CBP20 Y50A + CBP80 Y461A/R610E/H651A, mean ± SD of 2 experiments
# Method: For CBC, a triple mutant in CBP80 (Y461A/R610E/H651A) was combined with various mutations in CBP20 (Y50A, Y50A/Y89A, or Y50A/Y89A/D107R).
# ITC experiments were performed on a MicroCal ITC200 system (Malvern). Proteins were dialyzed overnight in buffer 20 mM HEPES, 120 mM NaCl, 2 mM tris(2-carboxyethyl)phosphine, pH 7.8. Injections of 1.5 µl protein A were added at an interval of 120–180 s into 205 µl of protein B in the cell, with a stirring speed of 800 rpm at 25 °C. The experimental data were analysed with MicroCal ITC Origin and were fitted to a single-site binding equation.
# m^7GTP-CBC [3] = target: T1, m^7GTP-CBC; experiment: Fluorescence polarisation with FAM-labelled C-terminal peptides; format: binding; conditions: 40 nM FAM peptide, 25 °C, n = 3; for Change of fluorescence polarisation on addition of labelled peptide to m^7GTP-CBC: 20 mM HEPES pH 7.8, 120 mM NaCl, 2 mM TCEP, ex 495 / em 515 nm
# Method: (§2) Fig. 4 Incompatibility of ARS2-PHAX and NELF-E binding to CBC. a, b Competition on m^7GTP-sepharose. a In separate experiments, different amounts of ARS2^147–871 were added to preformed CBC–NELF–E complex immobilised on m^7GTP-sepharose. […] The fluorophore FAM is represented with a star. Note that different constructs of NELF-E and ARS2 were used in c, d, and e compared to f, g, and h and are therefore represented by slightly different shapes. Error bars show the SD of three experiments
# Fluorescence anisotropy binding assays were performed with N-terminal FAM-labelled ARS2^845–871 and […] peptides. 40 nM peptides were titrated with increasing concentrations of proteins in 20 mM HEPES, pH 7.8, 120 mM NaCl, 2 mM tris(2-carboxyethyl)phosphine. For the competition assay CBC–ARS2 and CBC–NELF–E complexes were preformed in the presence of 25 µM m^7GTP using 40 nM ARS2^827–871(FAM) peptide together with 60 nM CBC and 40 nM NELF-E^354–380(FAM) peptide with 1 µM CBC. […] To observe a change in polarisation at reasonable protein concentrations, CBC and NELF-E^244–380 concentrations that saturate half of the FAM-labelled peptides were used to preform the individual complexes. Fluorescence polarisation was measured at 25 °C with a microplate reader (CLARIOstar BMG LABTECH) using an excitation wavelength of 495 nm and emission wavelength of 515 nm. For analysis the polarisation value for the peptide alone was subtracted from the measurements.
# CBC [4] = target: T2, CBC (Homo sapiens, UniProt P52298); experiment: ITC, binding to CBC without cap analogue; conditions: ITC (MicroCal ITC200), 25 °C, 20 mM HEPES, 120 mM NaCl, 2 mM TCEP, pH 7.8, single-site fit; no cap analogue pre-bound; mean ± SD of at least two independent experiments; SD
# T2 sequence (P52298 1-156): T1 sequence (P52298 1-156)
# T2 sequence (Q09161 20-790 partner): T1 sequence (Q09161 20-790)
# Source text: as §1, with “ARS2^845–871, NELF-E^354–380, and NELF-E^360–380 peptides, with or without FAM label at the N-terminus, were purchased from GenScript.” left out
# CBC [5] = target: T2, CBC; experiment: Size exclusion chromatography (gel filtration) co-elution with CBC, without m^7GTP; format: binding; conditions: fractions analysed by SDS-PAGE, absence of m^7GTP
# Method: (§3) Fig. 1 The interaction of CBC with ARS2 is enhanced in the presence of m^7GTP. a Schematic diagram of the domain structure of ARS2 based on ref. [26]. b Gel filtration chromatogram and Coomassie-stained SDS-PAGE of CBC-ARS2 in the presence and absence of m^7GTP. Purified recombinant CBC and ARS2^147–871 were mixed with (orange) or without (blue) 500 µM m^7GTP and subjected to gel filtration. Their elution profiles were overlaid (left) and single fractions analysed by SDS-PAGE (middle and right). Purified recombinant CBC and C-terminally truncated ARS2^147–845 were mixed with 500 µM m^7GTP and analysed in a similar way (bottom left). c ITC data and curve fit to derive the affinity of different ARS2 constructs for CBC. CBC or m^7GTP-CBC in the sample cell was titrated by ARS2. […] K D values and standard deviation represent the average from at least two independent experiments. d Sequence alignment of the C-terminus of ARS2. Conserved residues are highlighted in red. Figure made with ESPript[54]
# (§4) Fig. 2 The interaction of CBC with NELF-E is enhanced in the presence of m^7GTP. a Schematic diagram of the domain structure of NELF-E. b Gel filtration chromatogram and Coomassie-stained SDS-PAGE of CBC-NELF-E in the presence and absence of m^7GTP. […] Their elution profiles were overlaid (left) and single fractions analysed by SDS-PAGE (middle and right). […]
# [6] = system: CBC–PHAX complex immobilised on m^7GTP-sepharose; experiment: Displacement pull down on m^7GTP-sepharose, CBC–PHAX; format: binding, human; conditions: different amounts added, 1 h at 4 °C, flow through and elution by SDS-PAGE
# Method: as §2
# CBC-NELF-E^1–380 or CBC-PHAX^1–394 were immobilised on m^7GTP-sepharose and incubated for 1 h at 4 °C with different amounts of ARS2^147–871 or NELF-E^1–380 in 20 mM HEPES, pH 7.8, 120 mM NaCl, 2 mM tris(2-carboxyethyl)phosphine, respectively. The flow through, as well as the elution from the beads after extensive washing, was analysed by SDS-PAGE followed by Coomassie staining.
# CBC [7] = target: T2, CBC; experiment: Size exclusion chromatography (gel filtration) co-elution with CBC, with m^7GTP; format: binding; conditions: gel filtration with 500 µM m^7GTP, fractions analysed by SDS-PAGE
# Method: as §3, §4
substance,measurement,setting,value
ARS2 827–871 F871D: ARS2 827–871 construct with F871D mutation (GRGNYDAFRGQGGYPGKPRNRMVRGDPRAIVEYRDLDAPDDVDFD),Kd,m^7GTP-CBC [1],1800 ± 260 nM
"ARS2 827–871: human ARS2 isoform 4 residues 827–871, E. coli expressed construct (APYGAGRGNYDAFRGQGGYPGKPRNRMVRGDPRAIVEYRDLDAPD; isoform 4; UniProt Q9BXP5 827-871, looked up, fragment)",Co-elution with mutated CBC in m^7GTP-sepharose pull down,[2],abolished co-elution
same,Kd,m^7GTP-CBCmut,~12000 nM
same,Kd,m^7GTP-CBCmut; SD,11600 ± 1100 nM
same,Reduction in affinity of CBCmut compared to wild-type CBC,m^7GTP-CBCmut,twelvefold
same,Kd,m^7GTP-CBC [1],1000 ± 200 nM
same,Enhancement of the interaction with CBC when m^7GTP is bound,m^7GTP-CBC [1]; ratio of ITC K D without / with m^7GTP,twelve-fold
same,Change of polarisation on titration to m^7GTP-CBC-NELF-E^354–380(FAM),"m^7GTP-CBC [3]; competition, 1 µM CBC, 25 µM m^7GTP",decrease in polarisation
same,Kd,CBC [4],12200 ± 3500 nM
"ARS2^845–871(FAM): N-terminal FAM-labelled ARS2 845–871 peptide ({FAM}-YPGKPRNRMVRGDPRAIVEYRDLDAPD; UniProt Q9BXP5 845-871, looked up, fragment) [reference compound]",Change of fluorescence polarisation on addition of labelled peptide to m^7GTP-CBC,m^7GTP-CBC [3],"increase in fluorescence polarisation, indicating binding"
DKRTQIVYSDDVYKENLVDGF [NELF-E 360–380],Kd,m^7GTP-CBC [1],3300 ± 1100 nM
"NELF-E^1–380: full-length human NELF-E, expressed in High Five insect cells",Interaction with CBC by SEC,CBC [5],partially co-eluted
same,Displacement of PHAX from preformed CBC-PHAX^1–394 bound to m^7GTP-sepharose,[6],resulted in the displacement of PHAX^1–394
same,Interaction with CBC by SEC in the presence of m^7GTP,CBC [7],stabilised the complex
"NELF-E^354–380(FAM): N-terminal FAM-labelled NELF-E 354–380 peptide ({FAM}-PKGCHRDKRTQIVYSDDVYKENLVDGF; UniProt P18615 354-380, looked up, fragment) [reference compound]",Change of fluorescence polarisation on addition of labelled peptide to m^7GTP-CBC,m^7GTP-CBC [3],"increase in fluorescence polarisation, indicating binding"
"PHAX: full-length human PHAX (phosphorylated adaptor for RNA export), residues 1–394",Kd,m^7GTP-CBC [1],130 ± 50 nM
RNRMVRGDPRAIVEYRDLDAPDDVDFF [ARS2 845–871],Kd,m^7GTP-CBC [1],1100 ± 160 nM
